{"source": "paper PMC7712654", "target": "α-CT coiled-coil domain fused with HIS tag (α-CT-His), fluorescently labeled (Arabidopsis thaliana)", "sequence (Q9LD43 420-769)": "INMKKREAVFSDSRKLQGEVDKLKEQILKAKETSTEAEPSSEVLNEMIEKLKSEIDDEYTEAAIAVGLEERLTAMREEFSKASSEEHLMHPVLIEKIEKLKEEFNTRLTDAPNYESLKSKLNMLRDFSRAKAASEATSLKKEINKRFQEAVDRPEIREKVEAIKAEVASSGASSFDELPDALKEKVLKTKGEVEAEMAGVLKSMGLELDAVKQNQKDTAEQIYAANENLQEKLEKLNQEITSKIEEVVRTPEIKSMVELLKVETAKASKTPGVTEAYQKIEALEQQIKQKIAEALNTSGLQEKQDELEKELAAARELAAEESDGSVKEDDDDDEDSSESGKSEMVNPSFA", "experiment": "MST", "conditions": "domain or fragment", "data": [{"substance": "coiled-coil domain of CTI2, GST tag removed by thrombin", "values": [{"measurement": "Kd", "value": 1400, "unit": "nM"}]}]}
